Experimental findings from the Human Domainome abundance scans (Beltran et al. 2025) are described below.

B1: GAS2-like protein 1, residues 209 to 276; numbered along this chain, Q99501 (parent)
chain: DELVREILGRCTCPDQFPMIKVSEGKYRVGDSSLLIFVRVLRSHVMVRVGGGWDTLEHYLDKHDPCRC
B2: Ankyrin-1, residues 1405 to 1484; numbered along this chain, P16157 (parent)
chain: MKMAVISEHLGLSWAELARELQFSVEDINRIRVENPNSLLEQSVALLNLWVIREGQNANMENLYTALQSIDRGEIVNMLE

± gives the uncertainty stated by the source.

Variants of B1 are the subject of one series. Put plainly: abundance fitness (aPCA) (normalised: wild type 0, dead -1); higher = more abundant; growth selection in yeast, the domain comes from the species named. Conditions: Homo sapiens.
For T55R, the abundance fitness is -0.09 ± 0.039.
Same read-out and setting: the result for T55N reads -0.185 ± 0.08; that for T55G, -0.815 ± 0.11; that for T55C, -0.785 ± 0.21.
The same measure, in the same setting: the result for T55Y reads -0.033 ± 0.092; that for T55D, -0.431 ± 0.081; that for T55M, -0.512 ± 0.086.
Still for that read-out and setting: as for T55S, the figure is 0.027 ± 0.05.
In the case of T55F, the abundance fitness is -0.263 ± 0.088.
Same read-out and setting: as for T55A, the figure is -0.545 ± 0.074; as for T55Q, -0.431 ± 0.065.
On the same count and under the same terms, as for T55P, the figure is -0.282 ± 0.092; as for T55W, -0.801 ± 0.14; as for T55V, -0.773 ± 0.11.
Same read-out and setting: the result for T55K reads -0.489 ± 0.14; that for T55I, -0.817 ± 0.1.
In the case of G51T, the abundance fitness came out at 0.032 ± 0.051.
Turning to G51V, the abundance fitness is -0.363 ± 0.052.
Consider G51Y, for which the abundance fitness was -0.286 ± 0.098.
On the same count and under the same terms, the result for G51W reads -0.512 ± 0.074; that for G51R, -0.159 ± 0.047; that for G52V, 0.089 ± 0.033.
On the same count and under the same terms, the result for G52T reads 0.109 ± 0.038; that for G52N, -0.032 ± 0.068; that for G52F, -0.068 ± 0.05.
Still for that read-out and setting: as for G52I, the figure is -0.038 ± 0.061; as for G52S, 0.063 ± 0.034; as for G52R, 0.021 ± 0.031.
As to G52A, the abundance fitness is 0.065 ± 0.034.
Still for that read-out and setting: the result for G52P reads -0.669 ± 0.093; that for G52L, -0.004 ± 0.031.
Still for that read-out and setting: as for G52C, the figure is -0.071 ± 0.066.
Still for that read-out and setting: as for G52K, the figure is 0.136 ± 0.062; as for G52Q, 0.166 ± 0.039; as for G52D, 0.013 ± 0.044.
As to G52Y, the abundance fitness stood at 0.08 ± 0.057.
G52H: the abundance fitness amounted to 0.077 ± 0.049.
The same measure, in the same setting: as for H58K, the figure is -0.138 ± 0.051; as for H58E, -0.102 ± 0.072; as for H58Y, -0.676 ± 0.081.
The same measure, in the same setting: as for H58C, the figure is -0.3 ± 0.068; as for H58F, -0.877 ± 0.22.
On the same count and under the same terms, as for H58P, the figure is -0.933 ± 0.17.
With H58R, the abundance fitness is -0.116 ± 0.043.
Take H58Q: the abundance fitness was -0.34 ± 0.11.
Turning to H58A, the abundance fitness came to 0.043 ± 0.042.
On the same count and under the same terms, as for H58L, the figure is -0.673 ± 0.074; as for H58G, 0.008 ± 0.044.
Same read-out and setting: the result for H58W reads -0.752 ± 0.13.
On the same count and under the same terms, the result for H58V reads -0.688 ± 0.063; that for H58M, -0.514 ± 0.066; that for R67S, -0.789 ± 0.09.
On to R67Q, for which the abundance fitness is -0.882 ± 0.15.
On the same count and under the same terms, the result for R67W reads -1.02 ± 0.25; that for R67L, -0.706 ± 0.09; that for R67D, -0.849 ± 0.17.
Same read-out and setting: as for R67P, the figure is -0.902 ± 0.2; as for R67I, -0.638 ± 0.21; as for R67K, -0.616 ± 0.12.
On the same count and under the same terms, the result for R67V reads -0.975 ± 0.14.
With R67A, the abundance fitness was -0.763 ± 0.17.
Still for that read-out and setting: as for R67M, the figure is -0.899 ± 0.13; as for R67G, -0.945 ± 0.19.
For the variant R67E, the abundance fitness is -0.847 ± 0.29.
On the same count and under the same terms, as for R67Y, the figure is -0.995 ± 0.28; as for R67C, -0.92 ± 0.15.
Same read-out and setting: the result for R67H reads -0.931 ± 0.48; that for R67N, -1.01 ± 0.35.
The same measure, in the same setting: as for K62C, the figure is -0.25 ± 0.052; as for K62S, -0.214 ± 0.046.
Consider K62T, for which the abundance fitness is -0.048 ± 0.049.
Still for that read-out and setting: as for K62P, the figure is -0.832 ± 0.12; as for K62F, -0.27 ± 0.11; as for K62W, -0.512 ± 0.076.
Still for that read-out and setting: as for K62H, the figure is -0.298 ± 0.11; as for K62D, -0.234 ± 0.064; as for K62N, -0.091 ± 0.14.
Turning to K62V, the abundance fitness was found to be 0.092 ± 0.038.
On the same count and under the same terms, the result for K62Y reads -0.242 ± 0.073.
On the same count and under the same terms, as for K62I, the figure is -0.078 ± 0.096; as for K62E, 0.054 ± 0.048.
Still for that read-out and setting: as for K62A, the figure is -0.069 ± 0.049; as for K62G, -0.337 ± 0.045.
On to K62Q, for which the abundance fitness was 0.137 ± 0.09.
Same read-out and setting: as for K62R, the figure is -0.065 ± 0.042; as for K62M, -0.038 ± 0.049.
Same read-out and setting: as for K62L, the figure is -0.004 ± 0.04.

Variants of B2 are the subject of the next series. Described as above. The conditions noted are these: Homo sapiens.
As for G11N, the abundance fitness is -0.161 ± 0.21.
Consider G11W, for which the abundance fitness was -0.893 ± 0.18.
On the same count and under the same terms, the result for I70D reads -0.881 ± 0.26.
Still for that read-out and setting: as for S69A, the figure is -0.045 ± 0.051; as for S38T, -0.291 ± 0.13.
With I31F, the abundance fitness was -0.793 ± 0.44.
The same measure, in the same setting: as for L12C, the figure is 0.3 ± 0.5.
The same measure, in the same setting: the result for A45W reads -0.921 ± 0.17; that for A45Q, -0.139 ± 0.1; that for A45E, -0.023 ± 0.074.
Same read-out and setting: the result for L46S reads -0.832 ± 0.14; that for L46N, -0.878 ± 0.36; that for W50V, -0.923 ± 0.15.
As to R32M, the abundance fitness is -0.35 ± 0.13.
As for A18I, the abundance fitness is -0.77 ± 0.16.
In the case of Q56W, the abundance fitness was -0.232 ± 0.16.
The same measure, in the same setting: as for Q56N, the figure is -0.191 ± 0.47; as for E8K, 0.075 ± 0.14.
The same measure, in the same setting: as for E8M, the figure is -0.426 ± 0.13; as for E8D, -0.3 ± 0.12; as for E41A, -0.113 ± 0.057.
Still for that read-out and setting: the result for E26Q reads -0.119 ± 0.098.
Take E26N: the abundance fitness worked out at 0.016 ± 0.15.
Still for that read-out and setting: the result for E26K reads -0.059 ± 0.073; that for R72M, -0.356 ± 0.13; that for E34N, -0.134 ± 0.35.
On the same count and under the same terms, as for E34M, the figure is -0.265 ± 0.34; as for E34L, -0.241 ± 0.097.
The same measure, in the same setting: as for E34R, the figure is -0.204 ± 0.12.
For Q42C, the abundance fitness was -0.061 ± 0.095.
Still for that read-out and setting: the result for N29Y reads -0.484 ± 0.16; that for N29D, 0.041 ± 0.079; that for L21S, -0.645 ± 0.15.
Same read-out and setting: the result for L67W reads -0.999 ± 0.19; that for L67Q, -0.809 ± 0.26; that for L67R, -0.803 ± 0.097.
In the case of E16G, the abundance fitness stood at 0.018 ± 0.047.
Same read-out and setting: the result for E16K reads -0.088 ± 0.086.
Still for that read-out and setting: the result for N57F reads -0.437 ± 0.19; that for R30Q, -0.049 ± 0.072; that for S43Y, -0.857 ± 0.16.
As for S43H, the abundance fitness is -0.56 ± 0.14.
Still for that read-out and setting: the result for W14A reads -0.799 ± 0.16; that for F23C, -0.51 ± 0.16.
The same measure, in the same setting: as for F23N, the figure is -1.02 ± 0.32; as for E74N, -0.478 ± 0.17; as for K2A, -0.168 ± 0.062.
Same read-out and setting: the result for K2P reads -0.587 ± 0.15.
Consider N77M, for which the abundance fitness was -0.152 ± 0.12.
Turning to N77P, the abundance fitness was -0.283 ± 0.11.
Same read-out and setting: as for S24Q, the figure is -0.195 ± 0.088; as for M3R, -0.045 ± 0.038.
Same read-out and setting: the result for M3F reads 0.105 ± 0.097; that for Y64M, -0.185 ± 0.11; that for L49V, -0.314 ± 0.065.
On the same count and under the same terms, as for L49E, the figure is -0.055 ± 0.078; as for L49Y, -0.037 ± 0.069; as for V33Q, 0.033 ± 0.09.
Consider V33F, for which the abundance fitness turned out to be 0.021 ± 0.12.
On the same count and under the same terms, the result for V33C reads 0.174 ± 0.12; that for L40E, -0.032 ± 0.099; that for L79G, -0.379 ± 0.059.
Take V51W: the abundance fitness turned out to be 0.085 ± 0.087.
On to V51Q, for which the abundance fitness is 0.176 ± 0.074.
Still for that read-out and setting: the result for V51M reads 0.026 ± 0.11; that for V51I, 0.017 ± 0.11.
Take L39A: the abundance fitness was -0.103 ± 0.069.
Regarding A15H, the abundance fitness was -0.206 ± 0.21.
The same measure, in the same setting: as for S7W, the figure is -0.691 ± 0.14; as for V5Y, 0.086 ± 0.091; as for M60C, -0.564 ± 0.23.
On the same count and under the same terms, as for M60K, the figure is -0.534 ± 0.35; as for Q68C, -0.235 ± 0.17.
Same read-out and setting: the result for A66N reads -0.562 ± 0.19; that for R53E, -0.512 ± 0.1.
For R53K, the abundance fitness was -0.17 ± 0.08.
For R53Q, the abundance fitness was -0.483 ± 0.11.
Take R19Y: the abundance fitness is -0.434 ± 0.17.
As to N37H, the abundance fitness was -0.366 ± 0.29.
The same measure, in the same setting: the result for N37W reads -0.36 ± 0.18.
